Experimental data reported in patent US20060019324A1.

T1: PknB1-279 (His-tagged catalytic kinase core of the Ser/Thr protein kinase PknB, Rv0014c, aa 1-279), P9WI81
T1 chain: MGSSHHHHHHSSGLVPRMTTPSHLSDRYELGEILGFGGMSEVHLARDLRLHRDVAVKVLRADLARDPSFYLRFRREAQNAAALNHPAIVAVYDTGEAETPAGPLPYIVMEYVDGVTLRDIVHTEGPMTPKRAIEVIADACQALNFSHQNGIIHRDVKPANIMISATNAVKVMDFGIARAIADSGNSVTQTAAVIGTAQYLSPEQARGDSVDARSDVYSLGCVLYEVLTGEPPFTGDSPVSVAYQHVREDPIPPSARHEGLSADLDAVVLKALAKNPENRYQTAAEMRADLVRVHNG

B1: PstP1-240 (His-tagged catalytic domain of the Ser/Thr protein phosphatase PstP, Rv0018c, aa 1-240) (protein)
chain: MARVTLVLRYAARSDRGLVRANNEDSVYAGARLLALADGMGGHAAGEVASQLVIAALAHLDDDEPGGDLLAKLDAAVRAGNSAIAAQVEMEPDLEGMGTTLTAILFAGNRLGLVHIGDSRGYLLRDGELTQITKDDTFVQTLVDEGRITPEEAHSHPQRSLIMRALTGHEVEPTLTMREARAGDRYLLCSDGLSDPVSDETILEALQIPEVAESAHRLIELALRGGGPDNVTVVVADVVD

Assays:
[1] = molecular target: PknB1-279 (His-tagged catalytic kinase core of the Ser/Thr protein kinase PknB, Rv0014c, aa 1-279) (Mycobacterium tuberculosis) (UniProt P9WI81); experiment: cell-based or functional assay
[2] = molecular target: T1, PknB1-279 (His-tagged catalytic kinase …)

| Molecule | MALDI-TOF mass of PknB1-279 after treatment with PstP or alkaline phosphatase: phosphate groups removed (phosphate groups) [1] | dephosphorylation of [33P]-autophosphorylated PknB1-279 by PstP, SDS-PAGE and autoradiography, with or without MnCl2 [2] | kinase activity of PknB on MBP (thio-γATP) after preincubation with PstP [2] |
| --- | --- | --- | --- |
| PstP1-240 (His-tagged catalytic domain of the Ser/Thr protein phosphatase PstP, Rv0018c, aa 1-240) (from UniProt P9WHW5 1-240) (enzyme) | 3 | – | – |
| B1 | – | PstP is capable of dephosphorylating PknB | prior dephosphorylation of PknB by PstP inhibits kinase activity on MBP |
